Experiments:
C3H10T½-BMP2 cells [1] = test: Semi-quantitative RT-PCR of osteo-/chondrogenic marker genes and Alcian Blue staining; type: cell-based, murine; details: co-expression in C3H10T½-BMP2 cells
Protocol: (§1) Proteoglycan-secreting chondrocytes were identified by staining with Alcian Blue at pH 2.5 (Alcian Blue 8GS, Roth, Karlsruhe).
Total cellular RNA was prepared by TriReagent LS according to the manufacturer's protocol (Molecular Research Center Inc., Ohio, Miss.). Five μg of total RNA was reverse transcribed with oligo-dT primers and cDNA aliquots were subjected to PCR. RT-PCR was normalized by the transcriptional levels of HPRT. The primer pairs and PCR conditions used to evaluate osteo-/chondrogenic differentiation, for collagen Ia1, collagen IIa1, osteocalcin, and the PTH/PTHrP-receptor have been described (Hoffmann A et al, J. Cell Sci 115: 769-781, 2002).

C3H10T½-BMP2 cells [2] = test: FACS for apoptosis and cell cycle progression; type: cell-based, murine; details: CDDP 25 μM; etoposide 10 μM; TAK1 variants stably co-expressed
Protocol: Exponentially growing cells were harvested 48 hours post-seeding or at different stages at and after confluence by trypsinization and fixation with 80% methanol. Cellular DNA content was determined by staining cells with RNAseS/propidium iodide, and measuring fluorescence in a Becton Dickinson FACScan. For each cell population, 10,000 cells were analyzed, and the proportions in G0/G1, G2/M and S-phases were estimated by using Modfit cell cycle analysis software. Information on cell size (e.g. due to differentiation) and complexity could be obtained from forward and side scatter data following evaluation of relevant cell populations.
To determine whether TAK1-mediated effects in the assay systems above resulted from apoptosis, C3H10T½-BMP2 cells co-expressing TAK1 variants were assayed by FACS for apoptosis and cell cycle progression.

[3] = tested on: SMAD1 trans-activation potential; test: GAL4 DBD-SMAD1 luciferase trans-activation reporter assay; type: cell-based, human
Protocol: (§2) Reporter assays using the GALA DNA binding domain fused to various forms of SMAD proteins were performed as described (Meersseman, G at al, Mech. Dev, 61: 127-140, 1997). Briefly, 420 nanograms (ng) DNA was transfected/well (24 well-plate seeded with 1×10^5 HEK 293T cells) one day prior to transfection. The DNA mix included a plasmid expressing β-galactosidase under the control of the RSV promoter, for normalization purposes and a reporter plasmid encoding firefly luciferase under the control of 5 GAL4 binding sites upstream of a minimal TATA box (pG5 luc, Promega, Mannheim) and combinations of effector plasmids. The DNA content was normalized with empty vector.
Cells were harvested and lysed. β-Galactosidase (β-gal) activity was measured via the luminescent β-galactosidase kit II (Clontech, Palo Alto, Calif.), and luciferase activity via the luciferase assay system (Promega, Mannheim). All results are expressed as luciferase activity normalized with β-gal values (“relative luciferase activities”). Reporter assays with the SMAD1 DNA binding element SBE-9 (GCCG×9) (Kusanagi K et al, Mol Biol Cell 11: 555-565, 2000) cloned into pCAT5 vector (Boshart M et al, Gene 110: 129-130, 1992) were performed similarly except that cells were lysed in CAT lysis buffer. CAT enzyme was measured via CAT ELISA assay and β-gal via chemiluminescent β-gal reporter gene assay (Roche, Mannheim).
To determine whether MH2 domains involved in TAK1 binding mediated inhibition of R-SMAD biological activity, a reporter assay measuring SMAD trans-activation potential was performed. Full-length SMAD1 and deletion mutants thereof were fused in-frame with the GAL4-DNA binding domain, and SMAD trans-activation potential was measured via UAS-driven-luciferase reporter expression (FIGS. 6B & C). The trans-activating potential of SMAD1/GAL4 hybrid molecules was measured with increasing amounts of TAK1 variants. […]

[4] = tested on: SMAD1-mediated transcription; test: SMAD1-SBE CAT reporter assay; type: cell-based, human; details: following activation by constitutively active receptors
Protocol: as §2
Cells were harvested and lysed. β-Galactosidase (β-gal) activity was measured via the luminescent β-galactosidase kit II (Clontech, Palo Alto, Calif.), and luciferase activity via the luciferase assay system (Promega, Mannheim). All results are expressed as luciferase activity normalized with β-gal values (“relative luciferase activities”). Reporter assays with the SMAD1 DNA binding element SBE-9 (GCCG×9) (Kusanagi K et al, Mol Biol Cell 11: 555-565, 2000) cloned into pCAT5 vector (Boshart M et al, Gene 110: 129-130, 1992) were performed similarly except that cells were lysed in CAT lysis buffer. CAT enzyme was measured via CAT ELISA assay and β-gal via chemiluminescent β-gal reporter gene assay (Roche, Mannheim). […]

C3H10T½-BMP2 cells [5] = test: Histological analysis and alkaline phosphatase staining of C3H10T½-BMP2 cells; type: cell-based, murine
Protocol: Murine C3H10T½ progenitor cells were cultured in high-glucose DMEM containing 10% fetal calf serum, as described (Ahrens Met al, DNA Cell Biol, 12: 871-880, 1993). Cells were stably transfected with expression plasmids encoding wt TAK1, dominant-negative (dn) or constitutively active (ca) TAK1 in pMT7T3-f1 using DOSPER™ according to the manufacturer's protocol (Roche, Mannheim) and a selection plasmid conferring puromycin resistance (pBSpacDp: parental C3H10T½ cells) or G418-resistance (pAG60: BMP2-expressing C3H10T½ cells). Individual clones were picked, propagated, and tested for recombinant expression of TAK1-variants by RT-PCR using a vector-specific and a gene-specific primer. Control cell lines (empty to expression vector) were established at the same time. Cells were plated at a density of 5,000 cells/cm^2. After reaching confluence (arbitrarily termed day 0) ascorbic acid (50 microgram/milliliter (μg/ml)) and b-glycerophosphate (10 millimolar (mM)) were added.
as §1
Osteoblast formation was evaluated as a measure of TAK1 influence on osteo-/chondrogenic differentiation potential. C3H10T½-BMP2 cells co-expressing TAK1 and its molecular variants were assessed histologically for alkaline phosphatase (ALP) activity (FIG. 8C), which is indicative of osteoblast differentiation.

B1: TAK1dn: dominant-negative TAK1 mutant (K63W), kinase inactive (protein)
chain: MSTASAASSSSSSSASEMIEAPSQVLNFEEIDYKEIEVEEVVGRGAFGVVCKAKWRAKDVAIWQIESESERKAFIVELRQLSRVNHPNIVKLYGACLNPVCLVMEYAEGGSLYNVLHGAEPLPYYTAAHAMSWCLQCSQGVAYLHSMQPKALIHRDLKPPNLLLVAGGTVLKICDFGTACDIQTHMTNNKGSAAWMAPEVFEGSNYSEKCDVFSWGIILWEVITRRKPFDEIGGPAFRIMWAVHNGTRPPLIKNLPKPIESLMTRCWSKDPSQRPSMEEIVKIMTHLMRYFPGADEPLQYPCQYSDEGQSNSATSTGSFMDIASTNTSNKSDTNMEQVPATNDTIKRLESKLLKNQAKQQSESGRLSLGASRGSSVESLPPTSEGKRMSADMSEIEARIVATAGNGQPRRRSIQDLTVTGTEPGQVSSRSSSPSVRMITTSGPTSEKPARSHPWTPDDSTDTNGSDNSIPMAYLTLDHQLQPLAPCPNSKESMAVFEQHCKMAQEYMKVQTEIALLLQRKQELVAELDQDEKDQQNTSRLVQEHKKLLDENKSLSTYYQQCKKQLEVIRSQQQKRQGTS
modifications: left off: small tags and cut ends
- expression of osteogenic marker genes (osteocalcin, PTH/PTHrP receptor) (C3H10T½-BMP2 cells [1]): no effect
- apoptosis (subG0-G1 peak) (C3H10T½-BMP2 cells [2]): did not induce apoptosis
- trans-activating potential of GAL4-SMAD1-MH2 and GAL4-SMAD1-L+MH2 constructs ([3]; FIG. 6C): no effect
- trans-activation activity after sharp drop from elevated value ([3]; higher amounts of TAK1dn): roughly 70%
- increase of SMAD trans-activation ([3]; low concentrations of TAK1dn): 35%
- inhibition of SMAD1 transcription (CAT reporter), in words [4]: minimal inhibition
- growth phenotype of C3H10T½-BMP2 cells expressing the TAK1 variant (C3H10T½-BMP2 cells [5]; after confluence): Multiple layer growth
- osteoblast-like cell formation / ALP activity (C3H10T½-BMP2 cells [5]; compared to C3H10T½-BMP2 cells, 10 days post-confluence): enhanced ALP activity

From US20100209400A1, “TAK1-Mediated Regulation of Osteogenesis” (priority 2003, published 2010)
